As a reminder, the Kd is the free concentration of one partner at which half of the binding sites on the other are occupied at equilibrium, for simple one-to-one binding. The low end stands for tighter binding, the high end for weaker binding. One may read the koff as a measure of how fast the partners let go of each other. A word on the kon: it is the second-order rate constant of association.

Where two headings read alike, the source gives them in different places.

Ten molecules from US20260193326A1 (published 2026) can be followed below.

In assay [1] the target is T1, AAV8 (adeno-associated virus serotype 8).
T1 construct: also called adeno-associated virus serotype 8
The experiment in a line: SPR, AAV on CM5 chip. (In SPR one partner is held on a chip, and binding of the other changes the refractive index at the surface.)

For assay [2], the target named is T2, AAV9 (adeno-associated virus serotype 9).
T2 construct: also called adeno-associated virus serotype 9
The experiment in a line: SPR, AAV on CM5 chip.

Assay [3] addresses T3, AAV5 (adeno-associated virus serotype 5).
T3 construct: also called adeno-associated virus serotype 5
Kind of assay: SPR, AAV on CM5 chip.

Assay [4] addresses T4, AAV2 (adeno-associated virus serotype 2, UniProt P03135 1-735).
T4 construct: also called adeno-associated virus serotype 2
Kind of assay: SPR, AAV on CM5 chip.

Assay [5] deals with T5, AAV6 (adeno-associated virus serotype 6 (AAV6)).
T5 construct: also called adeno-associated virus serotype 6
Kind of assay: 1 mL column of A4-002 coupled to agarose gel (11.58 mg/g gel); AAV capsid particles bound.

Assay [6] concerns the target T6, AAV9 (adeno-associated virus serotype 9 (AAV9)).
T6 construct: also called adeno-associated virus serotype 9; AAV9 antigen
The description is as above.

For assay [7], the target named is T7, AAV8 (adeno-associated virus serotype 8 (AAV8)).
T7 construct: also called adeno-associated virus serotype 8; AAV8 antigen
The description is as above.

Assay [8] concerns the target T8, AAV5 (adeno-associated virus serotype 5 (AAV5)).
T8 construct: also called adeno-associated virus serotype 5; AAV5 antigen
Described as above.

Assay [9] has as its target T5, AAV6. Kind of assay: 1 mL column of A4-008 coupled to agarose gel (9.77 mg/g gel); AAV capsid particles bound.
Assay [10] addresses T6, AAV9. The assay is described as above.
Assay [11] concerns the target T7, AAV8. The description is as above.
Assay [12] addresses T8, AAV5. The assay is described as above.
The target in assay [13] is T5, AAV6. The experiment in a line: 1 mL column of A4-008 coupled to agarose gel (10.74 mg/g gel); AAV capsid particles bound.
The target in assay [14] is T6, AAV9. The description is as above.
Assay [15] has as its target T7, AAV8. The description is as above.
The target of assay [16] is T8, AAV5. The assay is described as above.
For assay [17], the target named is T1, AAV8. The experiment in a line: SPR, AAV on CM5 chip. The source holds these as a separate data set.
Experimental: (§1) AAV was amine-coupled to a CM5 sensor chip at a density of 500-800 response units (RU). Nanobodies were injected at seven concentrations (1-100 nM) with a flow rate of 45 μL/min, and chip regeneration was performed using glycine-HCl (pH 1.5). Binding curves at different nanobody concentrations were used to calculate kinetic parameters (Kₐ, Kd, KD) (Table 2 and FIG. 2).
The target in assay [18] is T2, AAV9. Kind of assay: SPR, AAV on CM5 chip. This is another data set of the same source.
Experimental: as §1
Assay [19] concerns the target T3, AAV5. Kind of assay: SPR, AAV on CM5 chip. The source holds these as a separate data set.
Experimental: as §1
For assay [20], the target named is T4, AAV2. The experiment in a line: SPR, AAV on CM5 chip. The source holds these as a separate data set.
Experimental: as §1
Assay [21] concerns the target T1, AAV8. The experiment in a line: SPR, AAV on CM5 chip. The source holds these as a separate data set.
The target in assay [22] is T2, AAV9. Kind of assay: SPR, AAV on CM5 chip. This is another data set of the same source.
Assay [23] deals with T3, AAV5. The experiment in a line: SPR, AAV on CM5 chip. The source holds these as a separate data set.
Assay [24] deals with T4, AAV2. Kind of assay: SPR, AAV on CM5 chip. This is another data set of the same source.

B1: A4-H1 (VHH)
VHH: VQLVESGGGLVQPGGSLRLSCAASGRSFSINTMGWFRQAPGKGLEAVAIVTRGGSTYYADSVKGRFTISRDNSKNTLYLQMNSLRAEDTAVYYCHIDEVRQSSWTTSNIWGQGTLVTVSS
As for B1, the Kd with AAV8 [1] came to 6.82 nM; with AAV9 [2], 127 nM; in the assay with AAV5 [3] it was 8.76 nM; with AAV2 [4], 8.51 nM. The off-rate constant (koff) with AAV8 [1] came to 0.00135 s⁻¹; in the assay with AAV9 [2], 0.00069 s⁻¹; with AAV5 [3], 0.00153 s⁻¹; with AAV2 [4] it was 0.00139 s⁻¹. For the same molecule, the kon came to 198000 M⁻¹ s⁻¹ with AAV8 [1], 5420 M⁻¹ s⁻¹ in the assay with AAV9 [2], 175000 M⁻¹ s⁻¹ in the assay with AAV5 [3] and 163000 M⁻¹ s⁻¹ with AAV2 [4].

B2: A4-H4 (VHH)
VHH: VQLVESGGGLVQPGGSLRLSCAASGSIFSINLMGWFRQAPGKGLELVAIITPGGNTYYADSVKGRFTISRDNSKNTVYLQMNSLRAEDTAVYYCHVDEVRQSSWTTSNLWGQGTLVTVSS
In the case of B2, the Kd with AAV8 [1] was determined as 9.44 nM; in the assay with AAV9 [2], 5.91 nM; with AAV5 [3] it was 2.86 nM; with AAV2 [4], 17.2 nM. Besides, the dissociation rate constant (koff) was found to be 0.00125 s⁻¹ with AAV8 [1], 0.00078 s⁻¹ with AAV9 [2], 0.00032 s⁻¹ with AAV5 [3] and 0.0017 s⁻¹ in the assay with AAV2 [4]. Also, the kon is 132000 M⁻¹ s⁻¹ in the assay with AAV8 [1], 132000 M⁻¹ s⁻¹ with AAV9 [2], 112000 M⁻¹ s⁻¹ with AAV5 [3] and 99000 M⁻¹ s⁻¹ with AAV2 [4].

B3: A4-H6 (VHH)
VHH: VQLVESGGGLVQPGGSLRLSCAASGRGFSINTMGWFRQAPGKGRELVAIVTRGGTTYYADSVKGRFTISRDNSKNTVYLQMNSLRAEDTAVYYCHVDEVRQSSWTTSNLWGQGTLVTVSS
On to B3, for which the Kd in the assay with AAV8 [1] stood at 344 nM; with AAV9 [2] it was 1160 nM; with AAV5 [3] it was 746 nM; with AAV2 [4], 746 nM. Further, the koff was 0.00164 s⁻¹ with AAV8 [1], 0.00177 s⁻¹ with AAV9 [2], 0.00565 s⁻¹ with AAV5 [3] and 0.00565 s⁻¹ with AAV2 [4]. For the same molecule, the kon with AAV8 [1] turned out to be 4760 M⁻¹ s⁻¹; in the assay with AAV9 [2], 1530 M⁻¹ s⁻¹; with AAV5 [3], 7570 M⁻¹ s⁻¹; with AAV2 [4], 7570 M⁻¹ s⁻¹.

B4: A4-002 (VHH)
VHH: VQLQESGGGLVQPGGSLRLSCAASGRSFSINTMGWYRQAPGKQRELVAAVTRGGSTNYAGSVKGRFTISRDNAKNTVYLQMNSLRPEDTAVYYCHIDEVRQSSWTTSNIWGQGTQVTVSS
Regarding B4, the binding capacity turned out to be 9.2e+13 VP with AAV6 [5], 1.26e+14 VP in the assay with AAV9 [6], 1.02e+14 VP in the assay with AAV8 [7] and 1.17e+14 VP with AAV5 [8].

B5: A4-008 (VHH)
VHH: VQLQESGGGLVQAGGSLRLSCAASGRAFSINTMGWYRQAPPKQRELVATVTRGGSTNYAGSVKGRFTISRDNAKNTIYLQMNSLRPEDTAVYYCHVDEVRQSSWTTSNIWGQGTQVTVSS
For B5, the binding capacity turned out to be 8.78e+13 VP with AAV6 [9]; 8.83e+13 VP in the assay with AAV9 [10]; 9.47e+13 VP with AAV8 [11]; 8.56e+13 VP in the assay with AAV5 [12]; 9.43e+13 VP with AAV6 [13]; 9.17e+13 VP with AAV9 [14]. Besides, the binding capacity in the assay with AAV8 [15] was found to be 1.16e+14 VP; with AAV5 [16] it was 8.95e+13 VP.

B6: A4-114 (VHH)
VHH: VQLQESGGGLVQTGGSLRLSCVASGSIFSINTVGWYRQAPGKQRELVATVTRAGSTWYAGSVKGRFTISRDNTKNTIYLQMNSLRPEDTAVYYCHVDELRQSTWTTSNLWGQGTQVTVSS
For B6, the Kd with AAV8 [17] turned out to be 1.81 nM; in the assay with AAV9 [18] it was 472 nM; with AAV5 [19], 7.11 nM; with AAV2 [20], 1.95 nM. Besides, the koff in the assay with AAV8 [17] amounted to 0.00017 s⁻¹; with AAV9 [18], 0.00123 s⁻¹; with AAV5 [19], 0.0011 s⁻¹; with AAV2 [20], 0.00022 s⁻¹. Also, the on-rate (kon) with AAV8 [17] was 94000 M⁻¹ s⁻¹; with AAV9 [18] it was 2610 M⁻¹ s⁻¹; with AAV5 [19], 155000 M⁻¹ s⁻¹; in the assay with AAV2 [20], 113000 M⁻¹ s⁻¹.

B7: A4-B3 (VHH)
chain: VQLVESGGGLVQPGGSLRLSCAASGRSFSINTMGWFRQAPGKGLEAVAIVTRGGSTYYADSVKGRFTISRDNSKNTLYLQMNSLRAEDTAVYYCHIDEVRQSSWTTSNIWGQGTLVTVSSGGGGSGGGGSGGGGSVQLVESGGGLVQPGGSLRLSCAASGRSFSINTMGWFRQAPGKGLEAVAIVTRGGSTYYADSVKGRFTISRDNSKNTLYLQMNSLRAEDTAVYYCHIDEVRQSSWTTSNIWGQGTLVTVSS
In the case of B7, the Kd with AAV8 [21] is 0.835 nM; with AAV9 [22], 20.3 nM; in the assay with AAV5 [23], 0.556 nM; with AAV2 [24], 0.245 nM. The koff with AAV8 [21] is 8e-05 s⁻¹; in the assay with AAV9 [22] it was 0.00095 s⁻¹; with AAV5 [23] it was 0.0001 s⁻¹; with AAV2 [24], 2e-05 s⁻¹. The kon with AAV8 [21] was 95800 M⁻¹ s⁻¹; with AAV9 [22] it was 46800 M⁻¹ s⁻¹; in the assay with AAV5 [23] it was 180000 M⁻¹ s⁻¹; in the assay with AAV2 [24] it was 81600 M⁻¹ s⁻¹.

B8: A4-B4 (bispecific antibody)
chain: VQLVESGGGLVQPGGSLRLSCAASGRSFSINTMGWFRQAPGKGLEAVAIVTRGGSTYYADSVKGRFTISRDNSKNTLYLQMNSLRAEDTAVYYCHIDEVRQSSWTTSNIWGQGTLVTVSSGGGGSGGGGSGGGGSVQLVESGGGLVQPGGSLRLSCAASGSIFSINLMGWFRQAPGKGLELVAIITPGGNTYYADSVKGRFTISRDNSKNTVYLQMNSLRAEDTAVYYCHVDEVRQSSWTTSNLWGQGTLVTVSS
On to B8, for which the Kd was determined as 0.332 nM with AAV8 [21], 5.26 nM in the assay with AAV9 [22], 0.872 nM in the assay with AAV5 [23] and 0.835 nM in the assay with AAV2 [24]. Besides, the koff with AAV8 [21] was 5e-05 s⁻¹; with AAV9 [22], 0.00063 s⁻¹; with AAV5 [23], 0.00016 s⁻¹; in the assay with AAV2 [24], 8e-05 s⁻¹. Moreover, the on-rate (kon) with AAV8 [21] amounted to 151000 M⁻¹ s⁻¹; in the assay with AAV9 [22], 120000 M⁻¹ s⁻¹; in the assay with AAV5 [23] it was 184000 M⁻¹ s⁻¹; in the assay with AAV2 [24], 95800 M⁻¹ s⁻¹.

B9: A4-105 (VHH)
VHH: VQLQESGGGLVQPGGSLRLSCAASGSIFSLNAMGWYRQAPGKQRELVATITSGGSTNYADSVKGRFTISRDNAKNTAYLQMNNLQPEDTAVYYCHVDEVRESIWTTSNLWGQGTQVTVSS
With B9, the Kd with AAV8 [17] is 21.7 nM; with AAV9 [18], 17 nM; with AAV5 [19], 14 nM; in the assay with AAV2 [20], 34.2 nM. Further, the koff with AAV8 [17] turned out to be 0.00391 s⁻¹; in the assay with AAV9 [18], 0.00189 s⁻¹; in the assay with AAV5 [19], 0.00139 s⁻¹; with AAV2 [20] it was 0.00543 s⁻¹. Moreover, the kon with AAV8 [17] is 180000 M⁻¹ s⁻¹; with AAV9 [18] it was 111000 M⁻¹ s⁻¹; in the assay with AAV5 [19], 99600 M⁻¹ s⁻¹; with AAV2 [20], 159000 M⁻¹ s⁻¹.

B10: A4-111 (VHH)
VHH: VQLQESGGGLAQPGGSLRLSCAASGSNFSINTMGWYRQRAGKQREFVATITRGGSTNYGDSVKGRFTISRDNAKTTVYLQMNSLRPEDTAVYYCHLDEVRESTWTTSNLWGQGTQVTVSS
As to B10, the Kd with AAV8 [17] is 1.88 nM; in the assay with AAV9 [18], 2 nM; with AAV5 [19], 1.06 nM; in the assay with AAV2 [20], 3.51 nM. The koff in the assay with AAV8 [17] came out at 0.00014 s⁻¹; with AAV9 [18], 0.00025 s⁻¹; in the assay with AAV5 [19], 9e-05 s⁻¹; in the assay with AAV2 [20] it was 0.0002 s⁻¹. In addition, the association rate constant (kon) was 74500 M⁻¹ s⁻¹ in the assay with AAV8 [17], 125000 M⁻¹ s⁻¹ with AAV9 [18], 85300 M⁻¹ s⁻¹ with AAV5 [19] and 56900 M⁻¹ s⁻¹ with AAV2 [20].
